Laboratory results published in US20200392227A1 (LYVGEN BIOPHARMA, published 2020).
Where two headings read alike, the source gives them in different places. One block for each binder: values may come before it.

Columns and labels:
[1] = molecular target: T1, human FcRI protein (MednaBio, E1031) (human, UniProt P12314 16-288, limits assumed); experiment: BLI
T1 construct: Bought; loaded on anti-penta-HIS biosensors; also called FcγRI
Procedure, shortened: (§1)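 Binding was measured by biolayer interferometry on an Octet Red96 System. Commercial human Fc receptor proteins were loaded at 20 μg/mL onto anti-penta-HIS biosensors, which were then dipped into an 8-point 1:3 dilution series of test IgG starting at 300 nM in PBS with 0.1% BSA and 0.02% Tween-20, at pH 7.2 for Fcγ receptors and pH 6 for FcRn. Kd, kon and koff were obtained by global fitting, with data fitted to a 1:1 binding model.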

[2] = molecular target: T2, human FcRIIA protein (MednaBio, E1033) (human, UniProt P12318 34-218, limits assumed); experiment: BLI
T2 construct: Bought; also called FcγRIIA
T2 sequence (looked up): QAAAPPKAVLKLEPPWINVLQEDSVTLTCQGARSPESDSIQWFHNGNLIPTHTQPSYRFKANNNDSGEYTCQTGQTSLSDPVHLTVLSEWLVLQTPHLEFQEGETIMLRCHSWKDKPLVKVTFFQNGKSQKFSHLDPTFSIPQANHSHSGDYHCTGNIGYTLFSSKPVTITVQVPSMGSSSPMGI
Procedure, shortened: as §1

[3] = molecular target: T3, human FcRIIB/C protein (MednaBio, E1034) (human, UniProt P31994 43-217, limits assumed); experiment: BLI
T3 construct: Bought as FcRIIB/C; also called FcγRIIB; CD32B
T3 sequence (looked up): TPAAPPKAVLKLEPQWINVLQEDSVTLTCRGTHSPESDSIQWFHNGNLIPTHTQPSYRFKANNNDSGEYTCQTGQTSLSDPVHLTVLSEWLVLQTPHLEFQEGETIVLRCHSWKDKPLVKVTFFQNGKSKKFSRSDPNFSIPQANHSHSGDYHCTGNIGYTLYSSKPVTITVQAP
Procedure, shortened: as §1

[4] = molecular target: T4, human FcRIIIA-F158 protein (MednaBio, E1036) (human, UniProt P08637 17-208); experiment: BLI
T4 construct: Bought; also called FcγRIIIA(F)
T4 sequence (P08637 17-208 limits assumed): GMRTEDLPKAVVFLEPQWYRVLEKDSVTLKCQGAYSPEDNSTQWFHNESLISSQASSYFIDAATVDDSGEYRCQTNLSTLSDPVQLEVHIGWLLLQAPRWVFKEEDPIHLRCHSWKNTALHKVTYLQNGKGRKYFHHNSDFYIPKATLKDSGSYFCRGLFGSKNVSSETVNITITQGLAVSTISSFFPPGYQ
Procedure, shortened: as §1

[5] = molecular target: T5, human FcRIIIA-V158 protein (MednaBio, E1035) (human, UniProt P08637 17-208); experiment: BLI
T5 construct: Bought; also called FcγRIIIA(V); FcgRIIIA(V)
T5 sequence (P08637 17-208 F176V): as the sequence (P08637 17-208 limits assumed) above, with F160V counted along it
Procedure, shortened: as §1

[6] = molecular target: T6, human FcRIIIB protein (MednaBio, E1037) (human, UniProt O75015 17-200); experiment: BLI
T6 construct: Bought; also called FcγRIIIB; FcgRIIIB
T6 sequence (O75015 17-200 limits assumed): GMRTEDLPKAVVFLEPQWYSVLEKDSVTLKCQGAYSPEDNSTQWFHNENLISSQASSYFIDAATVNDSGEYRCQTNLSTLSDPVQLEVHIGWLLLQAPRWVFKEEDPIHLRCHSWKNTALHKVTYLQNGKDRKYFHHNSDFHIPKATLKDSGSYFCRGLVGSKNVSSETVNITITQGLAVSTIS
Procedure, shortened: as §1

[7] = molecular target: T7, human FcRn protein (MednaBio, E1032) (human, UniProt P55899 24-297; P61769 21-119); experiment: BLI
T7 construct: Bought; assays at pH 6
Procedure, shortened: as §1

[8] = molecular target: T8, human FcγRIIC expressed on CHO cells (human, UniProt P31995 43-323); experiment: FACS, CHO cells expressing FcγRIIC
T8 construct: whole, on cells
T8 sequence (looked up): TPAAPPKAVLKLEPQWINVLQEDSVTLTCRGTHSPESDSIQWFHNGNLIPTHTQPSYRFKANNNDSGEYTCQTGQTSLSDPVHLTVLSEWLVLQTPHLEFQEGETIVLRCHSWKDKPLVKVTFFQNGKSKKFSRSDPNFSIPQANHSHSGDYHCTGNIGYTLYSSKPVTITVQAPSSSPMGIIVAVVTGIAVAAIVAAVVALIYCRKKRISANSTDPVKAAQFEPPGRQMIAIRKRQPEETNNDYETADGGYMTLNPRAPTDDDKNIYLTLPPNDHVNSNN
Procedure: FIGS. 1A-1W are charts showing binding activity of various IgG variants as indicated to different types of Fcγ receptors expressed on CHO-K1 cells at the various concentrations as indicated. The concentrations of each IgG variant, from left to right, are 0 μg/ml, 0.3 μg/ml, 1 μg/ml, 3 μg/ml, and 10 μg/ml in FIGS. 1A-1C, 1E-J, 1L-1M, 1P-1R, and 1T-1V. For FIGS. 1D, 1K, 10, 1S, and 1w the bars, from left to right, correspond to the following concentrations of IgG variant: 0.3 μg/ml, 1 μg/ml, 3 μg/ml, and 10 μg/ml.
(§2) For FACS analysis of the IgG mutants' binding to different FcγRs, FcγR overexpressing CHO cells were harvested using trypsin-EDTA and were suspended in cold staining buffer (3% BSA in PBS). Test IgG mutants, which were diluted in staining buffer, were added into the cells. The mixture was incubated 4° C. for 2 hours, and then washed twice with cold staining buffer and re-suspended in PE-labeled anti-human IgG followed by incubation at 4° C. for 2 hours. The mixture was washed twice with staining buffer and re-suspended in 2% PFA in PBS for FACS.

[9] = molecular target: T1, human FcRI protein (MednaBio, E1031); experiment: BLI; remark: listed apart in the source
Procedure: (§3) These IgG mutants were tested for binding to a panel of human Fc receptors (FcRs), including FcRn, using the Octet Red96 System (ForteBio, Model #Red96). Human FcR proteins were purchased commercially (FcRn, MednaBio, E1032; FcRI, MednaBio, E1031; FcRIIA, MednaBio, E1033; FcRIIB/C, MednaBio, E1034; FcRIIIA-F158, MednaBio, E1036; FcRIIIA-V158, MednaBio, E1035; FcRIIIB, MednaBio, E1037). All Fey receptor assays were performed at pH 7.2; all FcRn assays were performed at pH 6. The Fey receptors were loaded onto anti-penta-HIS1K (ForteBio, Cat #18-5122) biosensors at a concentration of 20 μg/mL. The loaded biosensors was then be dipped into an 8-point 1:3 dilution series of the test IgG molecules (including controls and the mutants described herein) in PBS with 0.1% BSA, 0.02% Tween-20 (pH 7.2) at a starting concentration of 300 nM. Kinetic analysis was performed using a 1:1 binding model and global fitting.

[10] = molecular target: T2, human FcRIIA protein (MednaBio, E1033); experiment: BLI; remark: listed apart in the source
Procedure: as §3

[11] = molecular target: T3, human FcRIIB/C protein (MednaBio, E1034); experiment: BLI; remark: listed apart in the source
Procedure: as §3

[12] = molecular target: T4, human FcRIIIA-F158 protein (MednaBio, …); experiment: BLI; remark: listed apart in the source
Procedure: as §3

[13] = molecular target: T5, human FcRIIIA-V158 protein (MednaBio, …); experiment: BLI; remark: listed apart in the source
Procedure: as §3

[14] = molecular target: T6, human FcRIIIB protein (MednaBio, E1037); experiment: BLI; remark: listed apart in the source
Procedure: as §3

[15] = molecular target: T7, human FcRn protein (MednaBio, E1032); experiment: BLI; remark: listed apart in the source
Procedure: as §3

[16] = molecular target: T7, human FcRn protein (MednaBio, E1032); experiment: BLI; remark: listed apart in the source
Procedure, shortened: as §1

[17] = molecular target: T9, human FcγRI expressed on CHO cells (human, UniProt P12314 16-374); experiment: FACS, CHO cells expressing FcγRI
T9 construct: whole, on cells
T9 sequence (P12314 16-374): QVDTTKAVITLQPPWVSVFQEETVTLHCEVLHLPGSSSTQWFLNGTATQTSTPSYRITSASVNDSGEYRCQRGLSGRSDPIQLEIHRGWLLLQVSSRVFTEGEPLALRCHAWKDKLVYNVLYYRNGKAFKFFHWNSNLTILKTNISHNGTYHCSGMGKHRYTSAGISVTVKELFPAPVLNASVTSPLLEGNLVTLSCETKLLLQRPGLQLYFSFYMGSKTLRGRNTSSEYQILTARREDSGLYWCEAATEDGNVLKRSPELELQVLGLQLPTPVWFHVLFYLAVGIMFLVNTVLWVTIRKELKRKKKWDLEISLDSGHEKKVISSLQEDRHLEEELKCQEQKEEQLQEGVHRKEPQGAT
Procedure: as §2

T1 sequence (P12314 16-288 limits assumed): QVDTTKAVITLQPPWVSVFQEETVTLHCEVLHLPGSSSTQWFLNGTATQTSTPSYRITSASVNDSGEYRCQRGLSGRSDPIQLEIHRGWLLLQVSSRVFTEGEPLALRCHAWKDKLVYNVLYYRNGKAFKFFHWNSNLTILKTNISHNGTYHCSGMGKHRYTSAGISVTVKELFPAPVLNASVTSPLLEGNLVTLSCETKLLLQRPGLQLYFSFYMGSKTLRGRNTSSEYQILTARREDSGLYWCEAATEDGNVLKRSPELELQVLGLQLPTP

Kd [9]: 2 nM
koff [9]: 0.00091 s⁻¹
kon [9]: 440000 M⁻¹ s⁻¹
Kd [10]: 68 nM
koff [10]: 0.057 s⁻¹
kon [10]: 840000 M⁻¹ s⁻¹
Kd [11]: 160 nM
koff [11]: 0.099 s⁻¹
kon [11]: 620000 M⁻¹ s⁻¹
Kd [12]: 250 nM
koff [12]: 0.07 s⁻¹
kon [12]: 280000 M⁻¹ s⁻¹
Kd [13]: 160 nM
koff [13]: 0.033 s⁻¹
kon [13]: 210000 M⁻¹ s⁻¹
binding result [14]: no binding (tested: 300 nM)
Kd [15]: 10 nM
koff [15]: 0.0091 s⁻¹
kon [15]: 900000 M⁻¹ s⁻¹
B2: anti-CD137 IgG2 with Fc variant G2m2 (antibody)
heavy: EVQLVQSGAEVKKPGESLRISCKGSGYSFSTYWISWVRQMPGKGLEWMGKIYPGDSYTNYSPSFQGQVTISADKSISTAYLQWSSLKASDTAMYYCARGYGIFDYWGQGTLVTVSSASTKGPSVFPLAPCSRSTSESTAALGCLVKDYFPEPVTVSWNSGALTSGVHTFPAVLQSSGLYSLSSVVTVPSSNFGTQTYTCNVDHKPSNTKVDKTVERKCCVECPPCPAPPFLGGPSVFLFPPKPKDTLMISRTPEVTCVVVDVSHEDPEVQFNWYVDGVEVHNAKTKPREEQFNSTFRVVSVLTVVHQDWLNGKEYKCKVSNKGLPAPIEKTISKTKGQPREPQVYTLPPSREEMTKNQVSLTCLVKGFYPSDIAVEWESNGQPENNYKTTPPMLDSDGSFFLYSKLTVDKSRWQQGNVFSCSVMHEALHNHYTQKSLSLSPGK
light: SYELTQPPSVSVSPGQTASITCSGDNIGDQYAHWYQQKPGQSPVLVIYQDKNRPSGIPERFSGSNSGNTATLTISGTQAMDEADYYCATYTGFGSLAVFGGGTKLTVLGQPKAAPSVTLFPPSSEELQANKATLVCLISDFYPGAVTVAWKADSSPVKAGVETTTPSKQSNNKYAASSYLSLTPEQWKSHRSYSCQVTHEGSTVEKTVAPTECS
notes: copies: 2 + 2

Kd [16]: 11 nM
koff [16]: 0.0068 s⁻¹
kon [16]: 610000 M⁻¹ s⁻¹
binding result [17]: binds
B3: anti-CD137 IgG4 with Fc variant G4m18 (antibody)
heavy: EVQLVQSGAEVKKPGESLRISCKGSGYSFSTYWISWVRQMPGKGLEWMGKIYPGDSYTNYSPSFQGQVTISADKSISTAYLQWSSLKASDTAMYYCARGYGIFDYWGQGTLVTVSSASTKGPSVFPLAPCSRSTSESTAALGCLVKDYFPEPVTVSWNSGALTSGVHTFPAVLQSSGLYSLSSVVTVPSSSLGTKTYTCNVDHKPSNTKVDKRVESKYGPPCPPCPAPEFLSVFLFPPKPKDTLMISRTPEVTCVVVDVSQEDPEVQFNWYVDGVEVHNAKTKPREEQFNSTYRVVSVLTVLHQDWLNGKEYKCKVSNKGFPSSIEKTISKAKGQPREPQVYTLPPSQEEMTKNQVSLTCLVKGFYPSDIAVEWESNGQPENNYKTTPPVLDSDGSFFLYSRLTVDKSRWQEGNVFSCSVMHEALHNHYTQKSLSLSLGK
light: B2 light
notes: copies: 2 + 2

More lines, now with the values behind:

B1: anti-CD137 IgG1 with Fc variant G1m5 (antibody)
heavy: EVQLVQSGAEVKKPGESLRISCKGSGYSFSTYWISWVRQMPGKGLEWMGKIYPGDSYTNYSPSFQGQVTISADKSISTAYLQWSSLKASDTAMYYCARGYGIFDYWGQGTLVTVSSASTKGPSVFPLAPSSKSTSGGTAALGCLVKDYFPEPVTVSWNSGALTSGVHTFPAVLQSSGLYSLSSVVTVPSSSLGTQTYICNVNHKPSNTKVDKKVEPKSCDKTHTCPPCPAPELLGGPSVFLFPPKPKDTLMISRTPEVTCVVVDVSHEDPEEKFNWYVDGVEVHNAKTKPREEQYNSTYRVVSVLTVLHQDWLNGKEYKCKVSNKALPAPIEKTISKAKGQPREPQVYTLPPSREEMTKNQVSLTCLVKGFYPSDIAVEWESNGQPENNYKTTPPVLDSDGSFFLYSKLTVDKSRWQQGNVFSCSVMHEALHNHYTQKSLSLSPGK
light: B2 light
notes: copies: 2 + 2
Kd [1]: 1.6 nM
koff [1]: 0.00047 s⁻¹
kon [1]: 300000 M⁻¹ s⁻¹
Kd [2]: 670 nM
koff [2]: 0.23 s⁻¹
kon [2]: 340000 M⁻¹ s⁻¹
Kd [3]: 640 nM
koff [3]: 0.18 s⁻¹
kon [3]: 280000 M⁻¹ s⁻¹
binding result [4]: no binding (tested: 300 nM)
Kd [5]: 290 nM
koff [5]: 0.073 s⁻¹
kon [5]: 250000 M⁻¹ s⁻¹
binding result [6]: no binding (tested: 300 nM)
Kd [7]: 22 nM
koff [7]: 0.0077 s⁻¹
kon [7]: 350000 M⁻¹ s⁻¹
binding result [8]: binds

B4: anti-CD137 IgG1 with Fc variant G1m7 (antibody)
heavy: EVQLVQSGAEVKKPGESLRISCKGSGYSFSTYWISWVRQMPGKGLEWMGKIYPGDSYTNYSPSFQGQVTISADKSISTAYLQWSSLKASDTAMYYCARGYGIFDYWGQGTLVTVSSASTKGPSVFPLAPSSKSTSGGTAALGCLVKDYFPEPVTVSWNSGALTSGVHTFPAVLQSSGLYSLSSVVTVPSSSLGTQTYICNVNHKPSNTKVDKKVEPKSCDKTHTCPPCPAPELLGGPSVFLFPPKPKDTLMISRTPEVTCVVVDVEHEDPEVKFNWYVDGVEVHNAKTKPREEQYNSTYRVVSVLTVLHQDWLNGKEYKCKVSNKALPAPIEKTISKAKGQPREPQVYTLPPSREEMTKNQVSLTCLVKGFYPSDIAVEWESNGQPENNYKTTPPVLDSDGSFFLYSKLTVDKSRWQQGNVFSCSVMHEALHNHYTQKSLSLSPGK
light: B2 light
notes: copies: 2 + 2
Kd [1]: 2.5 nM
koff [1]: 0.0016 s⁻¹
kon [1]: 630000 M⁻¹ s⁻¹
Kd [2]: 290 nM
koff [2]: 0.11 s⁻¹
kon [2]: 380000 M⁻¹ s⁻¹
Kd [3]: 110 nM
koff [3]: 0.032 s⁻¹
kon [3]: 280000 M⁻¹ s⁻¹
Kd [4]: 140 nM
koff [4]: 0.05 s⁻¹
kon [4]: 350000 M⁻¹ s⁻¹
Kd [5]: 87 nM
koff [5]: 0.039 s⁻¹
kon [5]: 440000 M⁻¹ s⁻¹
binding result [6]: no binding (tested: 300 nM)
Kd [7]: 15 nM
koff [7]: 0.01 s⁻¹
kon [7]: 670000 M⁻¹ s⁻¹
binding result [8]: binds

B5: anti-CD137 IgG1 with Fc variant G1m8 (antibody)
heavy: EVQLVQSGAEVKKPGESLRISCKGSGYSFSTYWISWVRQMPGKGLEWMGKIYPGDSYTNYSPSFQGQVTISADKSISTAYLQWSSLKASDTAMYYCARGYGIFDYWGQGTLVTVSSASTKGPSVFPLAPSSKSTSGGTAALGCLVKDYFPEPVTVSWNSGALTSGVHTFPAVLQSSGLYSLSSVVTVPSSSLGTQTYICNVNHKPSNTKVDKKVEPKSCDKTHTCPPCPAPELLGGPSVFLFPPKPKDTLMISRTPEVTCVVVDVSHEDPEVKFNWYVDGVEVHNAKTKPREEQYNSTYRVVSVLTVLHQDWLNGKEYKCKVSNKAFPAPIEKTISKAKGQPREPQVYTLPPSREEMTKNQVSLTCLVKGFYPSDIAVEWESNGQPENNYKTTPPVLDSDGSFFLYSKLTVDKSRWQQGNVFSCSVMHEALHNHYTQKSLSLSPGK
light: B2 light
notes: copies: 2 + 2
Kd [1]: 2.5 nM
koff [1]: 0.0016 s⁻¹
kon [1]: 630000 M⁻¹ s⁻¹
Kd [2]: 270 nM
koff [2]: 0.17 s⁻¹
kon [2]: 610000 M⁻¹ s⁻¹
Kd [3]: 420 nM
koff [3]: 0.11 s⁻¹
kon [3]: 270000 M⁻¹ s⁻¹
Kd [4]: 260 nM
koff [4]: 0.057 s⁻¹
kon [4]: 220000 M⁻¹ s⁻¹
Kd [5]: 230 nM
koff [5]: 0.074 s⁻¹
kon [5]: 320000 M⁻¹ s⁻¹
binding result [6]: no binding (tested: 300 nM)
Kd [7]: 16.5 nM
koff [7]: 0.0111 s⁻¹
kon [7]: 673000 M⁻¹ s⁻¹
binding result [8]: binds

B6: anti-CD137 IgG1 with Fc variant G1m9 (antibody)
heavy: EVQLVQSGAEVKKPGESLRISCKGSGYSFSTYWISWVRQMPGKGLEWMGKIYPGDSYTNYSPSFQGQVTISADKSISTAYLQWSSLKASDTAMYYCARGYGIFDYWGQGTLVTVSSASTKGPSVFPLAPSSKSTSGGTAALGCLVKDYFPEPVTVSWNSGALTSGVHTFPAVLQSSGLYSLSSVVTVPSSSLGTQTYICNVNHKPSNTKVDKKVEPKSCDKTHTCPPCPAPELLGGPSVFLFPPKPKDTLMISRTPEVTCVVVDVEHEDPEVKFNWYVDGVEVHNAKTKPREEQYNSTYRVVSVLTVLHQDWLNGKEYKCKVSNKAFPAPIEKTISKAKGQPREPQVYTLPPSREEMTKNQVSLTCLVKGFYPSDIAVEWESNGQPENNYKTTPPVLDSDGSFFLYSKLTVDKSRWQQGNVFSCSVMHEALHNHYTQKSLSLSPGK
light: B2 light
notes: copies: 2 + 2
Kd [1]: 3.1 nM
koff [1]: 0.0016 s⁻¹
kon [1]: 510000 M⁻¹ s⁻¹
Kd [2]: 680 nM
koff [2]: 0.13 s⁻¹
kon [2]: 180000 M⁻¹ s⁻¹
Kd [3]: 25 nM
koff [3]: 0.0051 s⁻¹
kon [3]: 200000 M⁻¹ s⁻¹
Kd [4]: 180 nM
koff [4]: 0.091 s⁻¹
kon [4]: 520000 M⁻¹ s⁻¹
Kd [5]: 86 nM
koff [5]: 0.1 s⁻¹
kon [5]: 1.2e+06 M⁻¹ s⁻¹
binding result [6]: no binding (tested: 300 nM)
Kd [7]: 19.1 nM
koff [7]: 0.0116 s⁻¹
kon [7]: 607000 M⁻¹ s⁻¹
binding result [8]: binds
